Laboratory results from patent US12612465B2, “Formulations comprising PCSK9 specific monoclonal antibodies” (Amgen Inc., priority 2012, dated 2026).
Entries after “also recorded” stand apart in the source; their conditions may differ.

Experiments:
PCSK9 [1] = target: T1, PCSK9 (Homo sapiens, UniProt Q8NBP7); test: 12 week study in heterozygous familial hypercholesterolemia (Example 22); assay type: in vivo; details: HeFH, preliminary
T1 construct: endogenous in cells; host or cells: human subjects, in vivo
T1 sequence (Q8NBP7 153-692): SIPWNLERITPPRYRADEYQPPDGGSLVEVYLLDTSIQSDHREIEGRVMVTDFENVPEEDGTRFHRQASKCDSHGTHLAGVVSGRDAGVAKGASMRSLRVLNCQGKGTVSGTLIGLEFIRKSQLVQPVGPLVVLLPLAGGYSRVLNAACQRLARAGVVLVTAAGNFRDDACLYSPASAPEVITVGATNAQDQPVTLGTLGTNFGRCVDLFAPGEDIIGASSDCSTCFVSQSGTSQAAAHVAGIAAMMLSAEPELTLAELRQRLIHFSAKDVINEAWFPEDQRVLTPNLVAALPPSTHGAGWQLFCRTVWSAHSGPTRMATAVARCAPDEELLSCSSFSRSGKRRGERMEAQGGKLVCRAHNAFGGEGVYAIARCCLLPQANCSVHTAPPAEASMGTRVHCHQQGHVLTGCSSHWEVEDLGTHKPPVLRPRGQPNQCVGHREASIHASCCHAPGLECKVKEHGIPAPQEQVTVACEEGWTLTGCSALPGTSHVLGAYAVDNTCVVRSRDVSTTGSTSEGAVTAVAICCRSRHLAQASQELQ
Experimental: This study is a double-blind, randomized, stratified, placebo-controlled clinical trial evaluating the safety, tolerability, and efficacy of monocloncal antibody 21B12 in subjects having a diagnosis of HeFH. A total enrollment of 150 subjects is planned. […] Randomization will be stratified by screening LDL-C level (<130 mg/dL [3.4 mmol/L] vs ≥130 mg/dL) and ezetimibe use at baseline (yes vs no). Randomization should occur within 5-10 days of the screening LDL-C evaluation used to determine eligibility. Monoclonal antibody, 21B12, and placebo will be blinded. Study visits are at weeks 2, 4, 8, and 12. […] The end-of-study (EOS) visit and the last evaluation of lipids is at week 12.
Males and females, ≥18 to ≤75 years of age, and with a diagnosis of heterozygous familial hypercholesterolemia by the diagnostic criteria of the Simon Broome Register Group (SBRG), are eligible for this study. For enrollment, subjects must be on an approved statin, with stable dose(s) for all allowed (eg, ezetimibe, bile-acid sequestering resin, stanols, or regulatory-approved and marketed niacin (eg, Niaspan or Niacor)) lipid-regulating drugs for at least
4 weeks before LDL-C screening and, in the opinion of the investigator, not requiring uptitration. Fasting LDL-C must be ≥100 mg/dL (2.6 mmol/L) and fasting triglycerides ≤400 mg/dL (4.5 mmol/L) by central laboratory at screening.

human PCSK9 = target: T2, human PCSK9 (Homo sapiens, UniProt Q8NBP7, E620G/G670E/V474I); test: BIAcore solution equilibrium binding assay; details: hPCSK9, solution equilibrium
T2 construct: made in house
T2 sequence (Q8NBP7 153-692 V474I/E620G/G670E): as the sequence (Q8NBP7 153-692) above, with V322I, E468G, G518E counted along it
Source text: Flow cell 3 was used as a background control. […] Although cPCSK9 has lower protein concentration observed from KinExA assay and SDS-gel, its concentration was not adjusted here since the concentration of cPCSK9 was not used for calculation of KD. […] FIG. 5B depicts the results from the solution equilibrium assay at three different hPCSK9 concentrations for hPCSK9. FIG. 5C depicts a similar set of results for mPCSK9. FIG. 5D depicts the results from the above biacore capture assay.

PCSK9 [2] = test: Serum lipids after a single subcutaneous dose in cynomolgus monkeys; assay type: in vivo, cynomolgus monkey; details: 0.5 mg/kg single SC
Source text: Briefly, naive male cynomolgus monkeys were acclimated to their environment for at least 2 weeks prior to experimentation. Animals were randomized into treatment groups based on a pre-screen of their serum TC, HDL-C, LDL-C, and triglyceride levels, and their body weight. After 1 week, animals were fasted overnight, and bled from the peripheral vasculature (cephalic or saphenous vein), for measurement of baseline serum lipid levels at a time point designated T=0. […] Fasting blood samples were then collected from animals at designated time points over a 45 day period.
At specified time points, blood was collected from animals under overnight fasting conditions from the peripheral vasculature (cephalic or saphenous vein). Whole blood was allowed to coagulate for 30 minutes at room temperature. Following centrifugation at 3,000 rpm for 20 minutes, serum was collected. Direct serum cholesterol analysis was performed using the Cobas Integra 400 analyzer (Roche Diagnostics Inc, Indianapolis, Ind.). Apolipoprotein B serum levels were determined at specified time points (day 0, 3, 6, 15, 24 and 33) by Anilytics, Md., with the following methodology. A 17 μL aliquot of the sample (no preparation) was used for analysis with a Hitachi 717 Analyzer using a 6 points standard curve. If the initial value of the sample was higher than the standard curve linearity, then the sample was diluted and repeated with the result multiplied by the appropriate dilution factor. The reagents for the assay (APO-B Reagent Kit #86071, Antibody Set #86060, Control Set #86103) were obtained from DiaSorin (Stillwater, Minn.).
A statistical model that considers baseline as a covariate and treatment group as a fixed effect was fit to the log transformed response at each time point for LDL-C, HDL-C, TC, and triglycerides. Tukey's multiple comparison correction was applied to adjust the pair wise comparisons at each time point. The statistical significance was evaluated at alpha=0.05 using adjusted p-values.

PCSK9 [3] = target: T1, PCSK9; test: Phase 1 ascending single dose study in healthy subjects; assay type: in vivo
[4] = 350 mg Q4W SC, end of dosing interval

- LS mean percent increase from baseline in HDL-C (PCSK9 [1]; [4]): 15.39%
- LS mean percent reduction from baseline in LDL-C (PCSK9 [1]; [4]): 38.46%
- LS mean percent reduction from baseline in Lp(a) (PCSK9 [1]; [4]): 21.69%
- LS mean percent reduction from baseline in VLDL-C (PCSK9 [1]; [4]): 17.16%
- LS mean percent reduction from baseline in non-HDL cholesterol (PCSK9 [1]; [4]): 36.16%
- LS mean percent reduction from baseline in total cholesterol (PCSK9 [1]; [4]): 24.82%
- LS mean percent reduction from baseline in triglycerides (PCSK9 [1]; [4]): 17.24%
- LS mean percent increase from baseline in HDL-C (PCSK9 [1]; 420 mg Q4W SC): 6.77%
- LS mean percent reduction from baseline in LDL-C (PCSK9 [1]; 420 mg Q4W SC): 45.68%
- LS mean percent reduction from baseline in Lp(a) (PCSK9 [1]; 420 mg Q4W SC): 28.23%
- LS mean percent reduction from baseline in VLDL-C (PCSK9 [1]; 420 mg Q4W SC): 18.49%
- LS mean percent reduction from baseline in non-HDL cholesterol (PCSK9 [1]; 420 mg Q4W SC): 41.81%
- LS mean percent reduction from baseline in total cholesterol (PCSK9 [1]; 420 mg Q4W SC): 29.45%
- LS mean percent reduction from baseline in triglycerides (PCSK9 [1]; 420 mg Q4W SC): 4.56%
- Kd (human PCSK9): 0.015 nM
- LDL-C nadir observed after dosing (PCSK9 [3]; single dose, healthy subjects): ≤ 2 weeks
- suppression of PCSK9 (PCSK9 [3]; single doses ≥70 mg SC): Complete suppression of PCSK9
B1: 21B12: human anti-PCSK9 monoclonal antibody, light/heavy variable region SEQ ID NO 23/49 (antibody, listed as Homo sapiens, V domains shown)
VH: QVQLVQSGAEVKKPGASVKVSCKASGYTLTSYGISWVRQAPGQGLEWMGWVSFYNGNTNYAQKLQGRGTMTTDPSTSTAYMELRSLRSDDTAVYYCARGYGMDVWGQGTTVTVSS
VL: QSALTQPASVSGSPGQSITISCTGTSSDVGGYNSVSWYQQHPGKAPKLMIYEVSNRPSGVSNRFSGSKSGNTASLTISGLQAEDEADYYCNSYTSTSMVFGGGTKLTVL
- LDL-C returned to levels similar to control animals (PCSK9 [2]): ≤ 6 days
- TC returned to levels similar to control animals (PCSK9 [2]): ≤ 4 days
- maximal LDL-C lowering as compared to control animals (PCSK9 [2]): 64%
- maximal TC lowering as compared to control animals (PCSK9 [2]): 20%
- maximal lowering of LDL-C vs anti-KLH IgG2 control at the same time point (change) (PCSK9 [2]): −64%
- serum HDL-C vs anti-KLH IgG2 control (PCSK9 [2]): statistically significant change in HDL-C at a single time point (day 18 following injection); also recorded: lowered HDL-C at a single time point, 18 days after injection
- time of maximal LDL-C lowering after injection (PCSK9 [2]): 3 days
- time of maximal TC lowering after injection (PCSK9 [2]): 3 days
- triglycerides levels vs anti-KLH IgG2 control (PCSK9 [2]): No statistically significant changes
- serum ApoB vs anti-KLH IgG2 control (PCSK9 [2]; days 3, 6, 15, 24 and 33): statistically significant lower ApoB levels at day 3 only
- median AUC0-inf (PCSK9 [3]; 420 mg IV): 1550 µg·days/mL
- median maximum observed concentration (Cmax) (PCSK9 [3]; 420 mg IV): 139 µg/mL
- anti-21B12 antibodies in serum (PCSK9 [3]; all 42 subjects who received 21B12): negative for anti-21B12 antibodies
- subjects with treatment-emergent adverse events (PCSK9 [3]; any dose, 29 of 42 subjects): 69%
- effects on laboratory variables, ECGs, vital signs (PCSK9 [3]; human, in vivo): no trends indicative of clinically important effects
